Measured values: PMC2756588

T1: Hof1, Q05080
T1 sequence (Q05080 590-669, looked up): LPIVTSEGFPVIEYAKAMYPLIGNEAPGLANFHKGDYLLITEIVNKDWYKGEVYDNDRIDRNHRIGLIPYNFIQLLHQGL

T2: Fus1, P11710
T2 sequence (P11710 432-512, looked up): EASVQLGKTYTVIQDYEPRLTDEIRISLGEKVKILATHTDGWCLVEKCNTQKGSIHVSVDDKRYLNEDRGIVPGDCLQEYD

T3: Bzz1-1, P38822
T3 sequence (P38822 478-572, looked up): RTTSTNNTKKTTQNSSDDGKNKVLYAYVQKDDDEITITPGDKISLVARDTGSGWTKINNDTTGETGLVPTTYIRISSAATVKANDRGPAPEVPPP

T4: Abp1, P15891
T4 sequence (P15891 535-592, looked up): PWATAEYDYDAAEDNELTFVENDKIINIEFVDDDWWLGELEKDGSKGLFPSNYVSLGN

T5: Sla1-3, P32790
T5 sequence (P32790 344-424, looked up): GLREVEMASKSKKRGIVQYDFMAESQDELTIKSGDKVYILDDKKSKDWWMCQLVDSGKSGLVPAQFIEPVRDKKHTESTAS

T6: Myo5, Q04439
T6 sequence (Q04439 1072-1160, looked up): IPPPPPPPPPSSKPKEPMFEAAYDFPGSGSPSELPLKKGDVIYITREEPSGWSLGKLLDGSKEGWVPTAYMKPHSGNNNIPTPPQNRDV

T7: Bzz1-2, P38822
T7 sequence (P38822 568-633, looked up): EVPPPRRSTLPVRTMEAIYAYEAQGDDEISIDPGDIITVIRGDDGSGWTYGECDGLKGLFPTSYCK

T8: Pex13, P80667
T8 sequence (P80667 295-386, looked up): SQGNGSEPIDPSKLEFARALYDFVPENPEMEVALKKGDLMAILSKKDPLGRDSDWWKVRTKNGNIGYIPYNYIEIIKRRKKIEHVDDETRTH

T9: Lsb4, P32793
T9 sequence (P32793 402-468, looked up): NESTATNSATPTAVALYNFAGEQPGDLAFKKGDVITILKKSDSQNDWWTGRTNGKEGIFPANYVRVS

T10: Bud14, P27637
T10 sequence (P27637 247-328, looked up): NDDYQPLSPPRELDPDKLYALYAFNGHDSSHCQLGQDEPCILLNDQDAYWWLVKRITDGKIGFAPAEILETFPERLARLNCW

T11: Sla1-2, P32790
T11 sequence (P32790 60-140, looked up): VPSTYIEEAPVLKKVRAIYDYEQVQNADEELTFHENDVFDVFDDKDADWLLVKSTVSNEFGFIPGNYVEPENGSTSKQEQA

T12: Lsb1, P53281
T12 sequence (P53281 45-122, looked up): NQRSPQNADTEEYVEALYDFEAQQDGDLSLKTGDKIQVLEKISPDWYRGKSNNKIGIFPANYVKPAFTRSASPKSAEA

T13: Boi1, P38041
T13 sequence (P38041 1-86, looked up): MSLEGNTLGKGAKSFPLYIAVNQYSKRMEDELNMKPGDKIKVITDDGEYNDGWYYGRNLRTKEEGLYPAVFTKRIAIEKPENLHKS

T14: Pin3, Q06449
T14 sequence (Q06449 53-122, looked up): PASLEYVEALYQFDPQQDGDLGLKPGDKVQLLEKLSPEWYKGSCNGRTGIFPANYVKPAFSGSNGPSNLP

T15: Nbp2, Q12163
T15 sequence (Q12163 103-180, looked up): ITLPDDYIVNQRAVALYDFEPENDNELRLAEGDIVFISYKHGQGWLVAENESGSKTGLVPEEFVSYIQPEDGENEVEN

T16: Lsb3, P43603
T16 sequence (P43603 385-451, looked up): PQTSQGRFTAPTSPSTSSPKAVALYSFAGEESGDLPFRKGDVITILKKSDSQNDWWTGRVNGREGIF

T17: Bbc1, P47068
T17 sequence (P47068 1-78, looked up): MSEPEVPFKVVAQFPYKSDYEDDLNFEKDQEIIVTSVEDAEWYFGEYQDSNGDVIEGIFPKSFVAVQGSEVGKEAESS

T18: Hse1, P38753
T18 sequence (P38753 208-285, looked up): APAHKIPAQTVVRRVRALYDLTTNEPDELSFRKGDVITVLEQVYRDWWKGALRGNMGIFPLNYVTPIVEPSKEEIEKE

T19: Cdc25, P04821
T19 sequence (P04821 50-136, looked up): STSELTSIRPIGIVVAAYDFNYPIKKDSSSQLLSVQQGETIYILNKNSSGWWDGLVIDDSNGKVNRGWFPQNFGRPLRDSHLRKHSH

T20: Cyk3, Q07533
T20 sequence (Q07533 1-83, looked up): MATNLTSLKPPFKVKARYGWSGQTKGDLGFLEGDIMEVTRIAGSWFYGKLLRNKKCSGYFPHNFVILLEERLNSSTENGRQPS

T21: Boi2, P39969
T21 sequence (P39969 32-116, looked up): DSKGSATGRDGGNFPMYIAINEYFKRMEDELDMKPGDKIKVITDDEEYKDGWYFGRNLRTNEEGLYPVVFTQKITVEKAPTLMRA

B1: unnamed (peptide)
chain: GRSRLFPHSPLGRSS
B2: unnamed (peptide)
chain: YHSRRHPLALGFKYV
B3: unnamed (peptide)
chain: HHNRRKPLEVYFKAT
B4: unnamed (peptide)
chain: HKVLRPFLLRRLKKD

How the values were obtained:
Experiment in all cases: SPOT array
Hof1, Q05080 = target: T1, Hof1, Q05080; settings: median of control spots 4086
Fus1, P11710 = target: T2, Fus1, P11710; settings: median of control spots 1200
Bzz1-1, P38822 = target: T3, Bzz1-1, P38822; settings: median of control spots 4446
Abp1, P15891 = target: T4, Abp1, P15891; settings: median of control spots 935
Sla1-3, P32790 = target: T5, Sla1-3, P32790; settings: median of control spots 5475
Myo5, Q04439 = target: T6, Myo5, Q04439; settings: median of control spots 471
Myo3, P36006 = settings: median of control spots 468
Bzz1-2, P38822 = target: T7, Bzz1-2, P38822; settings: median of control spots 4538
Bem1-1, P29366 = settings: median of control spots 4282
Bem1-1, P29366, sequence (P29366 55-141): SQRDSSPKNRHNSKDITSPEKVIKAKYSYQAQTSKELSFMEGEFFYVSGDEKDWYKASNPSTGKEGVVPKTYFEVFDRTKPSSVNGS

Pex13, P80667 = target: T8, Pex13, P80667; settings: median of control spots 1341
Lsb4, P32793 = target: T9, Lsb4, P32793; settings: median of control spots 397
Bud14, P27637 = target: T10, Bud14, P27637; settings: median of control spots 956
Sla1-2, P32790 = target: T11, Sla1-2, P32790; settings: median of control spots 712
Lsb1, P53281 = target: T12, Lsb1, P53281; settings: median of control spots 388
Boi1, P38041 = target: T13, Boi1, P38041; settings: median of control spots 1162
Pin3, Q06449 = target: T14, Pin3, Q06449; settings: median of control spots 2171
Nbp2, Q12163 = target: T15, Nbp2, Q12163; settings: median of control spots 357
Lsb3, P43603 = target: T16, Lsb3, P43603; settings: median of control spots 406
Bbc1, P47068 = target: T17, Bbc1, P47068; settings: median of control spots 796
Hse1, P38753 = target: T18, Hse1, P38753; settings: median of control spots 1727
GST = settings: median of control spots 978
Bem1-2, P29366 = settings: median of control spots 4347
Bem1-2, P29366, sequence (P29366 139-227): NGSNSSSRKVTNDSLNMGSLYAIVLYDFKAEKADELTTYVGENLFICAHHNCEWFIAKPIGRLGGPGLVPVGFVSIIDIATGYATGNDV

Cdc25, P04821 = target: T19, Cdc25, P04821; settings: median of control spots 969
Sho1, P40073 = settings: median of control spots 1148
Sho1, P40073, sequence (P40073 287-367): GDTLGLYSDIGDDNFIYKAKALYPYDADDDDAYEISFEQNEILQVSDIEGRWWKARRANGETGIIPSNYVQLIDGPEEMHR

Rvs167, P39743 = settings: median of control spots 2707
Rvs167, P39743, sequence (P39743 419-482): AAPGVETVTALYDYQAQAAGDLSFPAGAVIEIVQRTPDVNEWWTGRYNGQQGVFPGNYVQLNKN

Cyk3, Q07533 = target: T20, Cyk3, Q07533; settings: median of control spots 1451
Boi2, P39969 = target: T21, Boi2, P39969; settings: median of control spots 1161

Binder	SPOT intensity (Hof1, Q05080)	SPOT intensity (Fus1, P11710)	SPOT intensity (Bzz1-1, P38822)	SPOT intensity (Abp1, P15891)	SPOT intensity (Sla1-3, P32790)	SPOT intensity (Myo5, Q04439)	SPOT intensity (Myo3, P36006)	SPOT intensity (Bzz1-2, P38822)	SPOT intensity (Bem1-1, P29366)	SPOT intensity (Pex13, P80667)	SPOT intensity (Lsb4, P32793)	SPOT intensity (Bud14, P27637)	SPOT intensity (Sla1-2, P32790)	SPOT intensity (Lsb1, P53281)	SPOT intensity (Boi1, P38041)	SPOT intensity (Pin3, Q06449)	SPOT intensity (Nbp2, Q12163)	SPOT intensity (Lsb3, P43603)	SPOT intensity (Bbc1, P47068)	SPOT intensity (Hse1, P38753)	other results
B1	14	16	0	34	8	0	0	9	0	4	0	25	1	0	4	1	4	0	12	9	SPOT intensity (GST): 0; SPOT intensity (Bem1-2, P29366): 5; SPOT intensity (Cdc25, P04821): 34; SPOT intensity (Sho1, P40073): 21; SPOT intensity (Rvs167, P39743): 0; SPOT intensity (Cyk3, Q07533): 2; SPOT intensity (Boi2, P39969): 1
B2	0	5	0	0	9	0	1	0	0	4	0	4	0	0	0	13	0	0	2	0	SPOT intensity (GST): 0; SPOT intensity (Bem1-2, P29366): 10; SPOT intensity (Cdc25, P04821): 6; SPOT intensity (Sho1, P40073): 7; SPOT intensity (Rvs167, P39743): 0; SPOT intensity (Cyk3, Q07533): 3; SPOT intensity (Boi2, P39969): 0
B3	12	565	3	10	14	1	3	0	43	16	1	10	0	0	0	20	0	0	7	6	SPOT intensity (GST): 1; SPOT intensity (Bem1-2, P29366): 6; SPOT intensity (Cdc25, P04821): 10; SPOT intensity (Sho1, P40073): 43; SPOT intensity (Rvs167, P39743): 2; SPOT intensity (Cyk3, Q07533): 3; SPOT intensity (Boi2, P39969): 2
B4	0	52	1	34	30	0	0	0	0	0	0	21	0	0	1	4	13	0	333	11	SPOT intensity (GST): 0; SPOT intensity (Bem1-2, P29366): 1; SPOT intensity (Cdc25, P04821): 67; SPOT intensity (Sho1, P40073): 26; SPOT intensity (Rvs167, P39743): 0; SPOT intensity (Cyk3, Q07533): 3; SPOT intensity (Boi2, P39969): 0
